The values that follow come from article PMC2839090.

In this experiment the target is GST fused with the C-terminal variable region of LigB (LigBCtv; amino acids 1418-1889) (Leptospira interrogans serovar Pomona). The experiment can be described thus: ITC. In general terms: ITC needs no label: the signal is the heat of the interaction.

For orientation: Kd means a measure of binding affinity in units of concentration. High values mean a looser complex, low ones a tighter complex. The substance “Human plasma fibronectin (natural protein)” had a Kd of 8.55 µM.
